Where two headings read alike, the source gives them in different places.

We go through three compounds from PMC5345068, “A Glycyrrhetinic Acid-Modified Curcumin Supramolecular Hydrogel for liver tumor targeting therapy” (Scientific Reports, 2017).

Data set [1] in a line: solubility of pro-gelators in PBS. As for the experimental part: (§1) We therefore tested the gelation ability of the obtained two compounds. […] We then used a rheometer to characterize the resulting hydrogels obtained at 2 h time point. […] We then investigated the fluorescence spectra of the precursors (GA-cur and Nap-cur) and the hydrogels (GA-gel and Nap-gel).
(§2) 3 mg of GA-Cur or Nap-Cur was dissolved in 0.25 mL phosphate buffer saline (PBS) buffer solution (pH = 7.4, adjusted by 1.5 equiv. of Na2CO3). 4equiv. of glutathione (GSH) in 0.05 mL of PBS buffer (pH = 7.4, adjusted by 3.6equiv. of Na2CO3) was added to the above solution.

A short description of data set [2]: critical micelle concentration (CMC). It counts as physicochemical. The settings on record: Fig. S-7. An excerpt: Fig. S-7. The critical micelle concentration (CMC) of A) GA-cur and B) Nap-cur.
Fig. S-8. The LC-MS traces of the GA-Cur (mw=2398.78,1/ mw=1200.6) and the formed
Fig. S-9. The LC-MS traces of the Nap-Cur ([…]/ mw=1058.6) and the formed

In data set [3] the test system is HepG2 cells. Put plainly: cellular uptake, HepG2. The settings on record: 25 μM, 4 h, 6-well plates, 2.5 × 10^5 cells per well, DMSO lysis, microplate reader excitation 488 nm. As for the experimental part: (§3) After being incubated for 24 h in 6-well plates at a density of 2.5 × 10^5 cells per-well, HepG2 cells were treated with 2 mL growth medium containing 25 μM of Cur, GA-Cur, Nap-Cur, or GA + GA-Cur, respectively. In GA + GA-Cur group, 50 μM of GA was used to pre-treat cells for 2 hours. HepG2 cells were then rinsed for three times with PBS following with a treatment with 25 μM of GA-Cur for another 4 hours. After 4 hours’ incubation, cells were washed for three times with PBS to remove excess compounds and 500 μL of DMSO was added to each well to dissolve compounds in cells. The solution were collected after being treated with sonication for 15 min. The amount of compounds in the cells was determined by a microplate reader excitated at 488 nm. The same experiments were performed with 3T3 cells.

In data set [4] the test system is 3T3 cells. Description: cellular uptake, 3T3. The settings on record: same experiment as HepG2: 25 μM, 4 h; Fig. S-15. How it is done:
as §3

In data set [5] the test system is HepG2 cells. As to conditions: 48 h.
In data set [6] the test system is mouse NIH 3T3 cells. As to conditions: read-out: IC50, mouse fibroblast 3T3 cells; MTT, 48 h.
For data set [7] the following is noted: water; cited from earlier work. An excerpt:
Curcumin (Cur), a hydrophobic polyphenol compound, is derived from the rhizomes of Curcuma longa. Cur has a wide range of therapeutic properties, such as anti-inflammation[18], anti-oxidant[19], anti-mutagenic[20], and anticancer[21] with low or no intrinsic toxicity to healthy cells. […] Fig. S-6A). […] The minimum gelation ...

For data set [8], the system named is HepG2 cells. Put plainly: cells. The settings on record: Homo sapiens, HepG2, 48 h, read-out: IC50 HepG2 mean (Table S-1).
Data set [9] relates to mouse NIH 3T3 cells. Description: cells. The settings on record: NIH3T3, 48 h, read-out: IC50, mouse fibroblast 3T3 cells.
The nature of data set [10]: gelation test with GSH and hydrogel stability. It counts as physicochemical. The settings on record: PBS pH 7.4, disulfide reduction by GSH. As for the experimental part: as §1, §2

On to `COc1cc(/C=C/C(=O)CC(=O)/C=C/c2ccc(OC(=O)CCCC(=O)NCCCC[C@H](NC(=O)[C@H](Cc3ccc(O)cc3)NC(=O)[C@H](Cc3ccccc3)NC(=O)[C@H](Cc3ccccc3)NC(=O)CNC(=O)Cc3ccc4ccccc4c3)C(=O)N[C@@H](CCC(=O)O)C(=O)NCCSSCCNC(=O)CCC(=O)N[C@@H](CCC(=O)O)C(=O)N[C@@H](CCCNC(=N)N)C(=O)NCC(=O)N[C@@H](CC(=O)O)C(=O)O)c(OC)c2)ccc1O` [Nap-Cur, Nap–GFFYK(Cur)E-ss-ERGD], for which the “well solubilized in phosphate buffer saline at a concentration of” value in data set [1] (PBS pH = 7.4, 10 mg/mL = 1 wt%, optical image) was ≥ 10 mg/mL. The “critical micelle concentration (CMC)” value in [2] was ~1349 µg/mL. Also, the “intra-cellular concentration of Cur, HepG2” value in [3] is reported as 670 ng/well. Also, the “intra-cellular concentration of Cur, 3T3” value in [4] is on record as 641 ng/well. Besides, the IC50 (commonly the concentration that inhibits the measured activity by half) in [5] (read-out: IC50 against HepG2, MTT) came to 29.7 µM; in [6], 28.7 µM.
For `COc1cc(/C=C/C(=O)CC(=O)/C=C/c2ccc(O)c(OC)c2)ccc1O` [Cur, Curcumin], the aqueous solubility result in data set [7] is given as “≈ 11 ng/ml”. In addition, the IC50 in data set [8] was found to be 26.5 µM; in data set [9], 28 µM.
As for `COc1cc(/C=C/C(=O)CC(=O)/C=C/c2ccc(OC(=O)CCCC(=O)NCCCC[C@H](NC(=O)[C@H](Cc3ccc(O)cc3)NC(=O)[C@H](Cc3ccccc3)NC(=O)[C@H](Cc3ccccc3)NC(=O)CNC(=O)[C@@]3(C)CC[C@]4(C)CC[C@]5(C)C(=CC(=O)[C@@H]6[C@@]7(C)CC[C@H](O)C(C)(C)[C@@H]7CC[C@]65C)[C@@H]4C3)C(=O)N[C@@H](CCC(=O)O)C(=O)NCCSSCCNC(=O)CCC(=O)N[C@@H](CCC(=O)O)C(=O)N[C@@H](CCCNC(=N)N)C(=O)NCC(=O)N[C@@H](CC(=O)O)C(=O)O)c(OC)c2)ccc1O` [GA-Cur, GA–GFFYK(Cur)E-ss-ERGD], the “well solubilized in phosphate buffer saline at a concentration of” value in data set [1] is on record as ≥ 10 mg/mL. In addition, the “critical micelle concentration (CMC)” value in data set [2] is given as “about 1105 μg/mL”. For the same compound, the minimum gelation concentration entry in data set [10] is “about 0.75 wt%”. Besides, the midpoint of inhibition in data set [5], the IC50, lay at 10.7 µM.
